Results: paper PMC3374797, “Intrinsically Unstructured Domain 3 of Hepatitis C Virus NS5A Forms a “Fuzzy Complex” with VAPB-MSP Domain Which Carries ALS-Causing Mutations” (PLoS ONE, 2012)
Entries after “also recorded” stand apart in the source; their conditions may differ.

How the values were obtained:
VAPB-MSP(1–125) [1] = molecular target: T1, VAPB-MSP(1–125) (Homo sapiens, UniProt O95292); experiment: NMR HSQC titration of 15N-VAPB-MSP(1-125) with NS5A fragments, Kd fitting; format: binding; parameters: His tag (N, cleaved yes); made in house; host or cells: Escherichia coli BL21 (DE3) Star
T1 sequence (O95292 1-125): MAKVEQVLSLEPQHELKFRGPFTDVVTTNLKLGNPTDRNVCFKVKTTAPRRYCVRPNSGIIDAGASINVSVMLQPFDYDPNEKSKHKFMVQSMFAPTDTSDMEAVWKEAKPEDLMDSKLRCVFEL
Method: (§1) NMR samples were prepared in 10 mM phosphate buffer in the presence of 10 mM DTT (pH 6.8). All NMR data were collected at 25°C on an 800-MHz Bruker Avance spectrometer equipped with a shielded cryoprobe as described before [70]–[73]. For HSQC characterization, samples were prepared at a protein concentration of 100 µM. For sequential assignments of NS5A-D3, triple-resonance NMR experiments including HNCACB and CBCA(CO)NH were acquired on a double-labeled sample at a protein concentration of ∼300 µM while for sequential assignments of NS5A-D3A, three-dimensional heteronuclear NMR experiments including HSQC-TOCSY and HSQC-NOESY were acquired on a ^15N-labeled sample at a protein concentration of ∼500 µM. NMR data were processed with NMRpipe and analyzed with NMRview.
(§2) For NMR HSQC characterization of the binding interactions between NS5A and VAPB fragments/domains, two-dimensional ^1H-^15N HSQC spectra of the ^15N-labeled proteins were acquired at a protein concentration of 50 µM in the absence or presence of the unlabeled binding partners at different molar ratios. By superimposing the HSQC spectra at different molar ratios, the shifted or disappeared HSQC peaks could be identified and further assigned to the corresponding residues as we previously described, [67]–[70]. The degree of perturbation was reflected by an integrated chemical shift difference (CSD) calculated by the formula ((Δ^1H)^2+(Δ^15N)^2/5)^1/2 [73]. The CSD tracings were fitted by using the one binding site model to obtain residue-specific dissociation constants (Kd); which are summarized in Table 1.

[2] = molecular target: T2, VAPB-MSP(1–125) T46I mutant (Homo sapiens, UniProt O95292, T46I); experiment: NMR HSQC titration of 15N-VAPB-MSP(1-125) T46I mutant; format: binding
T2 construct: chemical shifts of VAPB-MSP(1–125) T46I mutant in the presence of unlabeled NS5A-D3C; His tag (N, cleaved yes); made in house; host or cells: Escherichia coli BL21 (DE3) Star
T2 sequence (O95292 1-125 T46I): as the sequence (O95292 1-125) above, with T46I counted along it
Method: as §1, §2

VAPB-MSP T46I mutant = conditions: ref [51]; cited from earlier work
VAPB-MSP(1–125) [3] = molecular target: T1, VAPB-MSP(1–125); experiment: NMR competition of EphA4 LBD with D3B for VAPB-MSP(1-125); format: binding; parameters: His tag (N, cleaved yes); made in house; host or cells: Escherichia coli BL21 (DE3) Star; conditions: MSP saturated by D3B at 1:4 (MSP/D3B); EphA4 at 1:10 (MSP:EphA4)
Method: NMR titration and docking results all reveal that the D3B peptide is able to occupy the MSP surface regions which are also critical for binding to EphA4 receptor as we previously characterized. To confirm this, we first saturated the VAPB-MSP(1–125) by D3B at a molar ratio of 1∶4 (MSP/D3B). Subsequently the EphA4 ligand-binding domain (LBD) was gradually titrated into this sample.
NMR samples were prepared in 10 mM phosphate buffer in the presence of 10 mM DTT (pH 6.8). All NMR data were collected at 25°C on an 800-MHz Bruker Avance spectrometer equipped with a shielded cryoprobe as described before [70]–[73]. For HSQC characterization, samples were prepared at a protein concentration of 100 µM. […] NMR data were processed with NMRpipe and analyzed with NMRview.
For NMR HSQC characterization of the binding interactions between NS5A and VAPB fragments/domains, two-dimensional ^1H-^15N HSQC spectra of the ^15N-labeled proteins were acquired at a protein concentration of 50 µM in the absence or presence of the unlabeled binding partners at different molar ratios. […] The degree of perturbation was reflected by an integrated chemical shift difference (CSD) calculated by the formula ((Δ^1H)^2+(Δ^15N)^2/5)^1/2 [73]. […]

VAPB-MSP(1–125) [4] = molecular target: T1, VAPB-MSP(1–125); parameters: His tag (N, cleaved yes); made in house; host or cells: Escherichia coli BL21 (DE3) Star; conditions: molar ratio 1:2; ref [51]; cited from earlier work
Description: NMR titration and docking results all reveal that the D3B peptide is able to occupy the MSP surface regions which are also critical for binding to EphA4 receptor as we previously characterized. […] Subsequently the EphA4 ligand-binding domain (LBD) was gradually titrated into this sample.

VAPB-MSP(1–125) [5] = molecular target: T1, VAPB-MSP(1–125); experiment: NMR titration

With `CSCC[C@H](NC(=O)[C@H](CO)NC(=O)[C@H](CO)NC(=O)[C@H](Cc1ccc(O)cc1)NC(=O)[C@H](CO)NC(=O)[C@H](CCC(=O)O)NC(=O)[C@H](C)NC(=O)[C@H](CC(=O)O)NC(=O)[C@H](CO)NC(=O)CN)C(=O)N1CCC[C@H]1C(=O)N1CCC[C@H]1C(=O)N[C@@H](CC(C)C)C(=O)N[C@@H](CCC(=O)O)C(=O)NCC(=O)N[C@@H](CCC(=O)O)C(=O)N1CCC[C@H]1C(=O)NCC(=O)N[C@@H](CC(=O)O)C(=O)N1CCC[C@H]1C(=O)N[C@@H](CC(=O)O)C(=O)N[C@@H](CC(C)C)C(=O)N[C@@H](CO)C(=O)N[C@@H](CC(=O)O)C(=O)NCC(=O)N[C@@H](CO)C(=O)N[C@@H](Cc1c[nH]c2ccccc12)C(=O)N[C@@H](CO)C(=O)N[C@H](C(=O)N[C@H](C(=O)N[C@@H](CO)C(=O)N[C@@H](CCC(=O)O)C(=O)N[C@@H](CCC(=O)O)C(=O)N[C@@H](C)C(=O)N[C@@H](CO)C(=O)N[C@@H](CCC(=O)O)C(=O)N[C@@H](CC(=O)O)C(=O)N[C@H](C(=O)N[C@H](C(=O)O)C(C)C)C(C)C)C(C)C)[C@@H](C)O` [D3B] the “Interaction (Yes/No) with VAPB-MSP(1-125)” value (VAPB-MSP(1–125) [1]; 15N-VAPB-MSP(1-125), unlabeled NS5A fragment) was “Yes”, the “MSP residues whose HSQC peaks undergo gradual but significant shifts” value (VAPB-MSP(1–125) [1]; molar ratio up to 1:4 (MSP/D3 peptide)) was “Gln6, Met89-Val90-Gln91, Asp116, Leu119 and Val122” and the “Binding affinity to VAPB-MSP, in words” value (VAPB-MSP(1–125) [1]; relative to D3 (and D3A, D3B)) was “retains almost the same binding affinity and mode as the 89-residue D3”. The “HSQC perturbation of VAPB-MSP(1-125)” value (VAPB-MSP(1–125) [1]; words, 50 µM 15N-labelled protein) was “almost the same shifting pattern and similar amplitude”, the “Interaction (Yes/No) with VAPB-MSP(1-125) T46I” value ([2]; 15N-VAPB-MSP(1-125) T46I) was “Yes/Weak” and the “HSQC perturbation of T46I mutant” value ([2]; molar ratio up to 1:6 (T46I/D3B)) was “only a small set of T46I HSQC peaks were found to shift slightly of very small amplitude”. The “Kd for T46I mutant, statement in words” value ([2]; shift tracings highly unsaturated, up to 1:6 (T46I/D3B)) was “impossible to fit out the CSD tracings to obtain Kd values”.
In the case of “EphA4 LBD: 181-residue EphA4 ligand binding domain”, the “Effect of T46I mutation on binding to EphA4” value (VAPB-MSP T46I mutant) is given as “reduced affinity to EphA4; also recorded: considerably reduces the binding affinity to EphA4”, the “HSQC perturbation of MSP by EphA4 LBD with pre-existence of D3B” value (VAPB-MSP(1–125) [3]) is given as “only several MSP peaks were observed to shift slightly” and the “HSQC perturbation of MSP by EphA4 LBD without D3B” value (VAPB-MSP(1–125) [4]) is given as “started to trigger peak shift and disappearance of the MSP residues”.
In the case of NS5A-D3(359–447) (domain or fragment), the Kd (VAPB-MSP(1–125) [5]) is reported as 4.5 µM, the residue-specific Kd (Asp116) (VAPB-MSP(1–125) [5]) is reported as 6.2 µM and the residue-specific Kd (Gln6) (VAPB-MSP(1–125) [5]) is reported as 6.8 µM. It also gave a residue-specific Kd (Gln91) (VAPB-MSP(1–125) [5]) of 2.4 µM, a residue-specific Kd (Leu119) (VAPB-MSP(1–125) [5]) of 4.5 µM and a residue-specific Kd (Met89) (VAPB-MSP(1–125) [5]) of 5.2 µM. It also gave a residue-specific Kd (Val90) (VAPB-MSP(1–125) [5]) of 4.6 µM and a residue-specific Kd (Val122) (VAPB-MSP(1–125) [5]) of 1.7 µM.
Work on NS5A-D3A(394–447) (domain or fragment) yielded a Kd (VAPB-MSP(1–125) [5]) of 8 µM, a residue-specific Kd (Asp116) (VAPB-MSP(1–125) [5]) of 10.2 µM and a residue-specific Kd (Gln6) (VAPB-MSP(1–125) [5]) of 11.5 µM. The residue-specific Kd (Gln91) (VAPB-MSP(1–125) [5]) was 7.1 µM, the residue-specific Kd (Leu119) (VAPB-MSP(1–125) [5]) was 7.7 µM and the residue-specific Kd (Met89) (VAPB-MSP(1–125) [5]) was 9.9 µM. It also gave a residue-specific Kd (Val90) (VAPB-MSP(1–125) [5]) of 7.2 µM and a residue-specific Kd (Val122) (VAPB-MSP(1–125) [5]) of 2.4 µM.
